Where a chain is given by its changes, count along the chain named. Numbers in names are those of the source. Where two headings read alike, the source gives them in different places.
T1: cynomolgus monkey LAMP1 at the cell surface (cynomolgus monkey, UniProt P11279 29-417 (human entry))
T1 construct: also called cynoLAMP1; cynomolgus LAMP1
T1 chain: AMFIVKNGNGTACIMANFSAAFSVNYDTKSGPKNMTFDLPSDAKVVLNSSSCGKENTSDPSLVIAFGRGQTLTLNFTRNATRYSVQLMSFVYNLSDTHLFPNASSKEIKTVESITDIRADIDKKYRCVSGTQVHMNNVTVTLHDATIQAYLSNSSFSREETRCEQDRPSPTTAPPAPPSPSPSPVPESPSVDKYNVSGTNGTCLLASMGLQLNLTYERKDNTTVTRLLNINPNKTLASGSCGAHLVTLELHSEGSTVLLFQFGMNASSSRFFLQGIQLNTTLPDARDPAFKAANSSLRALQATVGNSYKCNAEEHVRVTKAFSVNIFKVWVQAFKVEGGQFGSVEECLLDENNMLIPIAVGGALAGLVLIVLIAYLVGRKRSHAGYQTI

T2: human LAMP1 at the cell surface (human, UniProt P11279 29-417)
T2 sequence: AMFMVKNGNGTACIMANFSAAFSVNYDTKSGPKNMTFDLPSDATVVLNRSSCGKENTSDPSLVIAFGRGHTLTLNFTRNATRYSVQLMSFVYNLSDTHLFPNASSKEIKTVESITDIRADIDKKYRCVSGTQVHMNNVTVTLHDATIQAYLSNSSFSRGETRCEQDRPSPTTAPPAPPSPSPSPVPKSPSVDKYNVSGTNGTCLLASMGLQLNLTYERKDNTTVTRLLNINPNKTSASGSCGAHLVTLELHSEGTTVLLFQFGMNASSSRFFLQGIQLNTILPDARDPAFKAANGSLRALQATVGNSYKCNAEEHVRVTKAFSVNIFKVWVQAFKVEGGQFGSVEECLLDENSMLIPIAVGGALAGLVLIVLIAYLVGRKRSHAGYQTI

T3: LAMP1::histag (human, UniProt P11279 29-382)
T3 construct: extracellular domain without signal peptide, C-terminal 6 His tag, made in HEK293 cells; also called recombinant human LAMP1; human LAMP1 (29-382)
T3 sequence: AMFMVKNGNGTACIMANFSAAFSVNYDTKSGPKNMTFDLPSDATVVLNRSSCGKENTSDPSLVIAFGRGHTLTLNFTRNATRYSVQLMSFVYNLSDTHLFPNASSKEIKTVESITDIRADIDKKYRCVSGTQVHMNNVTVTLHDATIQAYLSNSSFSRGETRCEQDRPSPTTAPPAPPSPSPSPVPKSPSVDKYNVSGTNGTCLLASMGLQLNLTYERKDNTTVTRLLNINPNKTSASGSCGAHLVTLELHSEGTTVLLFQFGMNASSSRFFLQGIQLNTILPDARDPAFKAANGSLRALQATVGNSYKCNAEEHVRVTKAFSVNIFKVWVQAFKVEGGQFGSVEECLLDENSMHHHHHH

B1: DM4-SPDB-chMAb3 (antibody, human IgG1, kappa, V domains shown)
VH: QIQLVQSGPELKKPGETVKISCKASGYIFTNYGMNWVKQAPGKGLKWMGWINTYTGESRYADDFKGRFALSLETSASTAYLQINNLENEDMATYFCAREDYYGNSPWFFDVWGAGTTVTVSS
VL: DIQMTQTTSSLSASLGDRVTISCRASQGINKYLNWYQQKPDGTVKLLIYYTSTLHSGVPSRFSGSGSGTDYSLTINNLEPEDIATYYCQQYTRLPFTFGSGTKLEIKR
modifications: DM4 linked through SPDB, average DAR 3.7 per antibody; sites not stated
B2: chMAb3_VLR24-R93 (antibody, human IgG1, kappa, V domains shown)
VH: B1 VH
VL: B1 VL
notes: chimeric, human IgG1, Ckappa; VL with N24R and K93R
B3: DM4-SPDB-chMAb1 (antibody, human IgG1, kappa)
heavy: not shown
light: DIQMTQSPPSLSASLGGKVTITCKASQDIDRYMAWYQDKPGKGPRLLIHDTSTLQPGIPSRFSGSGSGRDYSFSISNLEPEDIATYYCLQYDNLWTFGGGTKLEIKRTVAAPSVFIFPPSDEQLKSGTASVVCLLNNFYPREAKVQWKVDNALQSGNSQESVTEQDSKDSTYSLSSTLTLSKADYEKHKVYACEVTHQGLSSPVTKSFNRGEC
modifications: DM4 linked through SPDB, average DAR 4.5 per antibody; sites not stated
notes: antibody drug conjugate of chMAb1; also called chMAb1-SPDB-DM4
B4: huMAb1_2 (antibody, human IgG1, kappa, V domains shown)
VH: QVQLVQSGAELVKPGASVKMSCKASGYIFTNYNIHWVKKSPGQGLEWIGAIYPGNGDAPYSQKFQDRATLTADTSSSTTYMELSSLTSEDSAVYYCVRANWDVAFAYWGQGTLVSVSS
VL: DIQMTQSPPSLSASVGGKVTITCKASQDIDRYMAWYQDKPGKGPKLLIHDTSTLQPGIPSRFSGSGSGRDYSFSISNLEPEDIATYYCLQYDNLWTFGGGTKLEIKR
notes: humanized, VH2-huIgG1 and VL2-huCk
B5: DM4-SPDB-huMAb1_2 (antibody, human IgG1, kappa, V domains shown)
VH: B4 VH
VL: B4 VL
modifications: DM4 linked through SPDB, average DAR 4.05 per antibody; sites not stated
B6: huMAb1_3 (antibody, human IgG1, kappa, V domains shown)
VH: B4 VH with K38R, K39Q, S40A, S61A, D66G, S91T, S115T
VL: B4 VL with P9S, D38Q, I58V, F73L, S74T, N77S
notes: humanized, VH3-huIgG1 and VL3-huCk
B7: DM4-SPDB-huMAb1_3 (antibody, human IgG1, kappa, V domains shown)
VH: B4 VH with K38R, K39Q, S40A, S61A, D66G, S91T, S115T
VL: B4 VL with P9S, D38Q, I58V, F73L, S74T, N77S
modifications: DM4 linked through SPDB, average DAR 3.5 per antibody; sites not stated
B8: chMAb2can (antibody, human IgG1, kappa, V domains shown)
VH: QVQLQQSAAELARPGASVKMSCKASGYTFTSYTMHWVKQRPGQGLEWIGYFNPSSGYPEYNQKFKDKTTLTADKSSNTAFIQLNSLTSEDSAVYYCSRGYYYGSRGYALDFWGQGTSVTVSS
VL: NIVLTQSPASLAVSLGQRATISCRASESVDINGNTFMHWYQQKPGQSPKLLIYAASNLESGVPARFSGSGSGTDFTFTIDPVEADDVATYYCQQNIEDPWTFGGGTKLEIKR
B9: DM4-SPDB-chMAb2 (antibody, human IgG1, kappa, V domains shown)
VH: B8 VH
VL: B8 VL
modifications: DM4 linked through SPDB, average DAR 3.7 per antibody; sites not stated
notes: also called DM4-SPDB-chMAb2can

Legend:
[1] = target: T1, cynomolgus monkey LAMP1 at the cell …; assay: flow cytometry, HEK293 cynoLAMP1 clone 44
[2] = target: T1, cynomolgus monkey LAMP1 at the cell …; assay: flow cytometry
[3] = target: T2, human LAMP1 at the cell surface; assay: cell-based or functional assay
[4] = target: T2, human LAMP1 at the cell surface; assay: flow cytometry, HCT116 huLAMP1 clone 8
Protocol: HCT116 cells were infected by a lentiviral vector allowing stable integration of the human or the cynomolgus LAMP1 CDS in genomic DNA of cells. Individual clones with different densities of human or cynomolgus LAMP1 cell surface localization were derived from a pool of HCT116 infected cells. […] 100 μL/well of goat anti-human IgG conjugated with Alexa488 (Invitrogen; # A11013) was added for 1 h at 4° C. and washed two times with PBS 1% BSA. The antibody binding was evaluated after centrifugation and resuspension of cells in 100 μl fixing solution (paraformaldehyde at 4% in PBS). Samples were read using Galaxy® Flow Cytometry System (Partec). EC50 values were estimated using BIOST@T-SPEED software.

LAMP1::histag = target: T3, LAMP1::histag; assay: SPR (BIAcore 2000), mAb captured by anti-Fc, LAMP1 injected 1 to 256 nM
Protocol: The binding kinetics of the murine, chimer or humanized anti-LAMP1 mAbs were determined by surface plasmon resonance assay using a BIAcore 2000 (BIAcore Inc., Uppsala, N.J.). […] A mouse anti-αhuman Fc IgG1 (BIAcore #BR-1008-39) and rabbit anti-αmurine Fc IgG1 (BIAcore #BR-1008-38) (50 μg/mL in […], pH5) were immobilized on the activated chips in all flow cells. The immobilization was carried out at a flow rate of 10 μL/min up to saturation. The chip was then blocked by injection of 70 μL of ethanolamine-HCl, pH 8.5, followed by one wash with 3 M MgCl₂ for anti-αhuman Fc IgG1 and one wash with 10 mM Glycine-HCl pH 1.7 for anti-αmurine Fc IgG1. To measure the binding of anti-LAMP1 mAbs to LAMP1, antibodies were used at 1-5 μg/mL in BIAcore running buffer (HBS-EP). […] Following completion of the injection phase, dissociation was monitored in a BIAcore running buffer at the same flow rate for 600 sec. […] Individual sensorgrams were analyzed using BIAevaluation software.

[5] = target: T2, human LAMP1 at the cell surface; assay: cell-based or functional assay; remark: listed apart in the source
[6] = target: T1, cynomolgus monkey LAMP1 at the cell …; assay: flow cytometry, HEK293 cynoLAMP1 clone 44

| Binder | EC50 [1] | Ratio of EC50s (cynoLAMP1 against huLAMP1) [2] | cytotoxicity IC50, HCT116 huLAMP1 clone 8 [3] | EC50 [4] | further results |
| --- | --- | --- | --- | --- | --- |
| B1 | 6.1 nM | 0.7 | 0.06 nM | 9.1 nM | – |
| B2 | – | – | – | – | Kd (LAMP1::histag): 7.2 nM |
| B3 | 6.6 nM | 1 | – | 6.6 nM | Cytotoxic activity IC50 (Cell Titer-Glo), HCT116-LAMP1 clone 5, antigen density 451 000 [5]: 0.2 nM; Cytotoxic activity IC50 (Cell Titer-Glo), HCT116-LAMP1 clone 8, antigen density 160 000 [5]: 0.1 nM |
| B4 | – | – | – | 6.6 nM | EC50 [6]: 13.3 nM |
| B5 | – | – | 0.07 nM | – | – |
| B6 | – | – | – | 10.3 nM | EC50 [6]: 17.7 nM |
| B7 | – | – | 0.12 nM | – | – |
| B8 | – | – | – | – | Kd (LAMP1::histag): 68.8 nM |
| B9 | 12.8 nM | 2.3 | 0.07 nM | 5.5 nM | – |

From patent US20180142032A1 (Sanofi, published 2018)
